This note sets out measurements from patent publication US20170258870A1.

The test deals with myc-tagged LIMP-2. The experiment in a line: cell-based or functional assay.

Turning to “wild-type β-glucocerebrosidase (GC), human, overexpressed in cells (from UniProt P04062 40-536) (enzyme)”, the post-ER form of GC (EndoH resistance) on co-expression of LIMP-2 came to 10 fold.
